Blank lines part the entries; values can stand above or below the binder they belong to.
Target: surface HSP90 on MDAMB453 breast cancer cells (human, UniProt P07900 2-732)
Test: cell-based or functional assay

inhibition of wound closure, MDAMB453 in vitro wound healing assay, 200 µg/ml, 48 hours: 55.3%
B1: monoclonal antibody (mAb) 4C5 (antibody, V domains shown)
VL: ELVMTQSPSSMYASLGERVTITCKASQDINSYLSWFQQKPGKSPKTLIYRANRLVDGVPSRFSGSGSGQDYSLTINSLEYEDMGIYYCLQYDEFPRLTFGAGTRLELKR

inhibition of wound closure, MDAMB453 in vitro wound healing assay, 200 µg/ml, 48 hours: 51.2%
B2: human-mouse chimeric 4C5 antibody (antibody, V domains shown)
VL: B1 VL

inhibition of wound closure, MDAMB453 in vitro wound healing assay, 200 µg/ml, 48 hours: 46.5%
B3: recombinant 4C5 (antibody, V domains shown)
VL: B1 VL

Source: patent publication US20160075771A1 (ZESTAGEN S A, published 2016)
